{"source": "paper PMC5750076", "molecular_target": "mTOR^ΔN-mLST8 complex (human) (UniProt P42345)", "data": [{"substance": "S6K1^367–404 wild type (from UniProt P23443-2 367-404) (peptide)", "values": [{"measurement": "KM of S6K1^367–404 phosphorylation by mTOR^ΔN-mLST8", "result": 430, "unit": "µM"}]}]}
